A short description of data set [1]: ECM specificity binding test, hyaluronic acid coating. The following applies: 5.0 mg/ml peptide, FIG. 4. As to the method: (§1) Peptides were incubated 24 hours at 37° C. on collagens I-IV, elastin, hyaluronic acid, and Geltrex. Coatings (10 pig/cm^2) were previously dried overnight in milli-Q water. Overall significance was assessed using analysis of variance, with Tukey's multiple comparison post-hoc analysis between ECM groups where n=4.
(§2) Hyaluronic acid, collagens I, II, III, and IV, elastin, and Geltrex were coated onto 96-well black plates (medium binding affinity) at 10 μg/cm^2 and were dried in milli-Q water at room temperature. N-termini biotinylated peptides were added to coated plates at 0, 1, 2.5, 5 and 10 mg/ml overnight at 37° C. in phosphate buffered saline (PBS), pH 7.4, after which the plates were washed three times with PBS. Fluorescent streptavidin-488 (4 μg/mL) was added to each well and incubated at 37° C. temperature for 24 hours, then thoroughly washed with PBS. The plates were read with a fluorescence microplate reader for fluorescence intensity (Ex 490 nm, Em 525 nm). All data were normalized to the background fluorescence intensity of Streptavidin-488.

Data set [2] can be described thus: Circular dichroism (CD) of peptides. The data set is classed as physicochemical. The following applies: 20 mM Sodium Cacodylate; for Ellipticity ratio (222 nm/208 nm) / Ellipticity 208 nm / Ellipticity 222 nm: 1.25 mg/mL; for Ellipticity 208 nm / Ellipticity 222 nm: CD data given as [θ]M×10^−3; for wavelength Minimum of CD profile: 5.0 mg/mL. As to the method: Data is presented in ellipticity ([θ]M×10^−3) as a function of spectral wavelength (λ).
Sodium cacodylate (SC), 20 mM pH 7.4, without and with 20% TFE was used to reduce phosphate related background signal and enhance detected structures. Circular dichroism (CD) data were collected in millidegrees, 0, and converted to molar ellipticity, [θ]M, and are expressed in units of deg×cm^2×dmol^−1. Scan speeds and digital integration times were 500 nm/min and 1 second, respectively. The data on the Y axis of the CD plots is [θ]M×10^−3. […] Consequently, CD signals are reported in the 190-260 nm range.

A short description of data set [3]: Transmission electron microscopy (TEM) of peptide nanostructures. Type of data set: physicochemical. On the procedure: The sample and stain were filter-dried in between steps. Samples were collected 24 hours at 37° C. after 30 minutes of sonication. All TEM was performed on a Philips FEI Technai Spirit G2 electron microscope. Peptides were incubated in both PBS and SC.

Data set [4] in a line: Concentration-dependent peptide binding to hyaluronic acid coating (biotin-streptavidin fluorescence). On the procedure:
Peptides were incubated 24 hours at 37° C. Coatings (10 μg/cm^2) were previously dried overnight in milli-Q water. Overall significance was assessed using analysis of variance, with Tukey's multiple comparison post-hoc analysis between 1-scrm and experimental groups where n=4.
N-termini biotinylated peptides were added to coated plates at 0, 1, 2.5, 5 and 10 mg/ml overnight at 37° C. in phosphate buffered saline (PBS), pH 7.4, after which the plates were washed three times with PBS.

Data set [5] can be described thus: 1H NMR of supernatant of peptide-hyaluronic acid mixtures (loss of HA and peptide from solution). Type of data set: binding. Particulars: 5 mg/mL HA. On the procedure:
FIGS. 7A-7C show Nuclear magnetic resonant (NMR) proton spectra of representative (i) hyaluronic acid peaks and (ii) biotinyl peptide peaks and for (FIG. 7A) mPEP35, (FIG. 7B) 1-scrm, and (FIG. 7C) 17x-3 in 25 mM sodium acetate buffer at pH 5.2. Samples represent supernatant (soluble component) of mixtures with 5 mg/mL HA in variable peptide mixture of 1.25, 2.5. and 5 mg/mL.
Peptides and HA were suspended in 25 mM sodium acetate buffer (pH 5.2), made up from 19 mM sodium acetate-d3, 6 mM acetic acid-d4, 10% D2O, and 1 mg/ml DSS-D6. All samples were centrifuged at 21,000 G to remove precipitate and the supernatant was collected for analysis, as only the liquid suspension could be used. NMR spectra were collected on an Avance NEO 600 MHz spectrometer at 298K with excitation sculpting used to suppress the water signal. Number of scans and receiver gain were identical for all NMR spectra.
As higher peptide binding was accompanied by apparent gel-like structure on the substrate, the binding event may be characterized by the change in concentration of either peptide or HA remaining in the solution. ^1H NMR is an ideal method for measuring changes in concentration in solution. It provides atom-specific information that can be used to distinguish signals of biotinylated peptides (6.4 ppm) from those of hyaluronic acid (3.5 ppm) as presented in FIG. 7. Sodium acetate (pH 5.2) was chosen as the buffer since it provides better spectral quality of the amide signals than pH 7.4 buffer. Focus was placed on characterizing the binding of mPEP35, 1-scrm, and 17x-3, which reflect a positive control, a negative control, and a potent binder, respectively. Measurements were taken after centrifugation to remove gel that formed when peptide and HA are mixed. It should be noted that only HN peaks of the peptide show slight chemical shift perturbation upon addition of HA.

The subject of data set [6] is extracellular matrix (ECM) components: Collagen type I, II, III and IV, elastin, hyaluronic acid and Geltrex. As to the kind of experiment: ECM specificity binding test, whole panel. Particulars: 5.0 mg/ml peptide, FIG. 4. As to the method: as §1, §2

“Also recorded” adds a separate entry of the source.

As to “KTKATVLIKNKQKSKNALKQKIVLLSK [Peptide 17x-3, de novo designed peptide with five B(X7)B domains]”, the “binding to hyaluronic acid in specificity testing” value in data set [1] is listed as “binds primarily”. Moreover, in data set [2], the “Ellipticity ratio (222 nm/208 nm)” value stood at 0.48, the “Ellipticity 208 nm” value is reported as −135, the “Ellipticity 222 nm” value is −64.4 and the “wavelength Minimum of CD profile” value worked out at 223 nm. In addition, in data set [2] (20% TFE), the “Ellipticity ratio (222 nm/208 nm)” value is on record as 0.72, the “Ellipticity 208 nm” value is −175, the “Ellipticity 222 nm” value was −126 and the “wavelength Minimum of CD profile” value was found to be 221 nm. Also, in data set [3] (PBS pH 7.4, 0.5% w/v, 30 minutes sonication, 24 hrs at 37° C.), the “TEM characterization, Phosphate Buffered Saline (i)” value was “fibers with many striations form larger fibers and the larger fibers tend to form a mesh network”. Moreover, in data set [3] (both PBS and sodium cacodylate), the “nanofiber formation in TEM, overall” value is “consistent nanofibers; also recorded: predominantly form fibers with striations and furthermore form a mesh network”. In data set [4] (0-10 mg/ml peptide, PBS pH 7.4, 37° C., HA coating 10 μg/cm^2, FIG. 3), the “binding to hyaluronic acid with increasing concentrations of peptide (fluorescence intensity)” value is listed as “increases dramatically”. Further, the “HA binding compared to mPEP35” value in data set [4] (higher concentrations (5-10 mg/ml)) was “significantly stronger binder”. In addition, the “HA binding, overall assessment” value in data set [4] (summary and discussion statements) is “proficient and specific binders; also recorded: HA specific and robust binders”. For the same sequence, the HA spectra retained in data set [5] (1.25 mg/mL peptide) is roughly 80%. Besides, the “HA spectra / removal of HA from solution” value in data set [5] (2.5 and 5 mg/mL peptide) was “nearly gone; also recorded: almost entirely removed; also recorded: pull all HA out of solution”. The “peptide removed from solution” value in data set [5] (2.5 to 5 mg/mL peptide) is roughly 90%. Moreover, in data set [6], the “binding to the ECMs (for 17x-3: the ECMs other than hyaluronic acid)” value is “does not bind significantly” and the “specificity of binding to ECMs” value is “high specificity”.

The record behind these values is US20250026792A1, “SELF-ASSEMBLING PEPTIDES WITH HYALURONIC ACID BINDING DOMAINS AND METHODS OF USE THEREOF” (Northwestern University, priority 2022, published 2025).
